# Article PMC3597514
# Columns and labels:
# [1] = target: NbSPL6-Yc (N. benthamiana); test: split reporter (BiFC, NanoBiT); as a5, but with tCFP alone in place of tCFP-p50-U1
# [2] = target: NbSPL6-Yc (N. benthamiana); test: split reporter (BiFC, NanoBiT); as a5, but with the non-eliciting p50-Ob-tCFP in place of tCFP-p50-U1; percent of cells as the ratio to the cells seen with tCFP-p50-U1
binder,measurement,setting,value
gN-Yn (receptor) MASSSSSSRWSYDVFLSFRGEDTRKTFTSHLYEVLNDKGIKTFQDDKRLEYGATIPGELCKAIEESQFAIVVFSENYATSRWCLNELVKIMECKTRFKQTVIPIFYDVDPSHVRNQKESFAKAFEEHETKYKDDVEGIQRWRIALNEAANLKGSCDNRDKTDADCIRQIVDQISSKLCKISLSYLQNIVGIDTHLEKIESLLEIGINGVRIMGIWGMGGVGKTTIARAIFDTLLGRMDSSYQFDGACFLKDIKENKRGMHSLQNALLSELLREKANYNNEEDGKHQMASRLRSKKVLIVLDDIDNKDHYLEYLAGDLDWFGNGSRIIITTRDKHLIEKNDIIYEVTALPDHESIQLFKQHAFGKEVPNENFEKLSLEVVNYAKGLPLALKVWGSLLHNLRLTEWKSAIEHMKNNSYSGIIDKLKISYDGLEPKQQEMFLDIACFLRGEEKDYILQILESCHIGAEYGLRILIDKSLVFISEYNQVQMHDLIQDMGKYIVNFQKDPGERSRLWLAKEVEEVMSNNTGTMAMEAIWVSSYSSTLRFSNQAVKNMKRLRVFNMGRSSTHYAIDYLPNNLRCFVCTNYPWESFPSTFELKMLVHLQLRHNSLRHLWTETKHLPSLRRIDLSWSKRLTRTPDFTGMPNLEYVNLYQCSNLEEVHHSLGCCSKVIGLYLNDCKSLKRFPCVNVESLEYLGLRSCDSLEKLPEIYGRMKPEIQIHMQGSGIRELPSSIFQYKTHVTKLLLWNMKNLVALPSSICRLKSLVSLSVSGCSKLESLPEEIGDLDNLRVFDASDTLILRPPSSIIRLNKLIILMFRGFKDGVHFEFPPVAEGLHSLEYLNLSYCNLIDGGLPEEIGSLSSLKKLDLSRNNFEHLPSSIAQLGALQSLDLKDCQRLTQLPELPPELNELHVDCHMALKFIHYLVTKRKKLHRVKLDDAHNDTMYNLFAYTMFQNISSMRHDISASDSLSLTVFTGQPYPEKIPSWFHHQGWDSSVSVNLPENWYIPDKFLGFAVCYSRSLIDTTAHLIPVCDDKMSRMTQKLALSECDTESSNYSEWDIHFFFVPFAGLWDTSKANGKTPNDYGIIRLSFSGEEKMYGLRLLYKEGPEVNALLQMRENSNEPTEHSTGIRRTQYNNRTSFYELING,percent of cells with citrine fluorescence (with tCFP alone) (% of the cells),[1],10
same,percent of cells with citrine fluorescence (with p50-Ob-tCFP) (% of the cells),[2],13
